Data reported in publication PMC6063412, “Development of monoclonal anti-PDGF-CC antibodies as tools for investigating human tissue expression and for blocking PDGF-CC induced PDGFRα signalling in vivo” (PLoS ONE, 2018).

How the values were obtained:
PDGF-BB [1] = target: T1, PDGF-BB (UniProt P01127); assay: ELISA; 96-well plate coated with PDGF-AA, PDGF-BB, PDGF-CC or PDGF-DD; 6B3 applied (methods: hybridoma supernatant in dilution series), anti-mouse IgG-AP, absorbance at 405 nm; settings: one partner purified
T1 construct: platelet-derived growth factor B chain homodimer

PDGF-AA [2] = target: T2, PDGF-AA (UniProt P04085); assay: as above; settings: one partner purified
T2 construct: platelet-derived growth factor A chain homodimer

[3] = target: T3, recombinant human PDGF-CC core domain protein (activated PDGF-CC, growth factor domain) (human, UniProt Q9NRA1); assay: immunoblot; recombinant PDGF proteins run reduced and non-reduced, blotted and probed with murine mAb IgG; settings: both partners purified
T3 construct: platelet-derived growth factor C, human, core domain (growth factor domain, GFD) released from the N-terminal CUB domain; also called hPCc; active PDGF-CC

[4] = target: T4, human latent full-length PDGF-CC (Homo sapiens, UniProt Q9NRA1); assay: as above; settings: both partners purified
T4 construct: platelet-derived growth factor C, human, latent full-length form with the CUB domain; also called hPCf; latent PDGF-CC

human PDGF-DD [5] = target: T5, human PDGF-DD (Homo sapiens, UniProt Q9GZP0); assay: as above; settings: both partners purified
[6] = target: T6, endogenous human PDGF-CC in A549 cells and placental tissue (Homo sapiens (endogenous, A549 and …, UniProt Q9NRA1)); assay: immunostaining of cells or tissue; paraffin-embedded sections of A549 cells and human placenta, citric acid antigen retrieval, 6B3 at 1.5 μg/ml, anti-mouse-HRP and DAB; with or without 1 h pre-incubation of 6B3 with 6.7 X excess PDGF-CC His6 (10 μg/ml); settings: one partner purified
T6 construct: platelet-derived growth factor C, endogenous; source: endogenous, paraffin-embedded sections of the A549 cell line and human placental tissue

PDGF-BB [7] = target: T1, PDGF-BB; assay: ELISA; data not shown; as the 6B3 ELISA on coated PDGF-AA, PDGF-BB, PDGF-CC and PDGF-DD, with other clones; settings: one partner purified
PDGF-AA [8] = target: T2, PDGF-AA; assay: as above; settings: one partner purified
human PDGF-DD [9] = target: T5, human PDGF-DD; assay: as above; settings: one partner purified

T1 sequence (P01127 82-190): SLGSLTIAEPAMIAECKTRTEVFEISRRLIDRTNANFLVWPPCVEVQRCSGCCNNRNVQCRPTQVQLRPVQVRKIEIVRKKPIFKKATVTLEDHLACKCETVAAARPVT
T3 sequence (Q9NRA1 230-345): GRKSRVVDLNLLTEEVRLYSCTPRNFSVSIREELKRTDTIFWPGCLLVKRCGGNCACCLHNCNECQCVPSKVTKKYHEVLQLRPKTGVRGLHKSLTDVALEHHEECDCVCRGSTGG
T4 sequence (Q9NRA1 23-345): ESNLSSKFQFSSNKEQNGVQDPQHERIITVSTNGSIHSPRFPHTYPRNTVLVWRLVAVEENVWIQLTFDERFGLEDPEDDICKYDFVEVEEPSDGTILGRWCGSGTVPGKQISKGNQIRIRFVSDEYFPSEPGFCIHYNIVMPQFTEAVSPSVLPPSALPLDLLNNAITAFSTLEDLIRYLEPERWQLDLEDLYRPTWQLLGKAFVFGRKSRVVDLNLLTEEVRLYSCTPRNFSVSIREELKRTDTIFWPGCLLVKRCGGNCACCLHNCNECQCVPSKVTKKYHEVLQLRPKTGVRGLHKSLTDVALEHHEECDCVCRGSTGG
T6 sequence (Q9NRA1 23-345): as above

B1: monoclonal anti-PDGF-CC antibody 6B3 (antibody, V domains shown)
VH: QVQLQQSGVEVARPGASVKLSCKASGYTFRSYGITWVRQRTGQGLEWIGEIYPRSGKTYYNEKFKGKATLTADTSSSTVYMELRSLTSEDSAVYFCAREGYGYDGGYFDYWGQGTTLTVSS
VL: DIVMTQSPSSLAMSVGQKVTMSCKSSQSLLNSRNQKNYLAWYQQKPGQSPKLLVYFASTRESGVPDRFTGSGSGTDFTLTISSVQAEDLAVYYCQQHYSTPLTFGAGTKLELK
notes: VH CDR1 (Kabat combined with Chothia); VH CDR2; VH CDR3; VL CDR1 (Kabat combined with Chothia); VL CDR2; VL CDR3; Mouse IgG2a, kappa; Only the CDRs are printed; frameworks are not; also called mAb 6B3; clone 6B3; source: mouse hybridoma; culture supernatant, or IgG purified (HiTrap-Protein G)
binding result (PDGF-BB [1]): no binding
binding result (PDGF-AA [2]): no binding
binding result [3]: binds
binding result [4]: binds
binding result (human PDGF-DD [5]): no binding
binding result [6]: binds

B2: monoclonal anti-PDGF-CC antibody 11F5 (antibody, V domains shown)
VH: QVQLQQSGAELARPGASVKLSCKASGYIFISYGISWVKQRTGQGLEWIGEIYPRSGKTYYNEKFKDKAALTADKSSSIAYMELRSLTSEDSAVYFCAREGYGYDGGYFDYWGQGTILTVSS
VL: DIVMTQSPSSLAMSVGQKVAVSCKSSQSLLNSSNQKNYLAWYQQKPGQSPKLLVYFASTRDSGVPDRFTGSGSGTDFTLTISSVQAEDLAVYYCQQHYSTPLTFGAGTKLELK
notes: VH CDR1 (Kabat combined with Chothia); VH CDR2; VH CDR3; VL CDR1 (Kabat combined with Chothia); VL CDR2; VL CDR3; Mouse IgG2a, kappa; Only the CDRs are printed; frameworks are not; also called clone 11F5; source: mouse hybridoma; culture supernatant, or IgG purified (HiTrap-Protein G)
binding result (PDGF-BB [7]): no binding
binding result (PDGF-AA [8]): no binding
binding result (human PDGF-DD [9]): no binding

B3: monoclonal anti-PDGF-CC antibody 19C7 (antibody, V domains shown)
VH: QVQLQQSGVEVARPGASVKLSCKASGYTFRSYGITWVRQRTGQGLEWIGEIYPRSGKTYYNEKFKGKATLTADTSSSTVYMELRSLTSEDSAVYFCAREGYGYDGGYFDYWGQGTTLTVSS
VL: DIVMTQSPSSLAMSVGQKVTMSCKSSQSLLNSRNQKNYLAWYQQKPGQSPKLLVYFASTRESGVPDRFTGSGSGTDFTLTISSVQAEDLAVYYCQQHYSTPLTFGAGTKLELK
notes: VH CDR1 (Kabat combined with Chothia); VH CDR2; VH CDR3; VL CDR1 (Kabat combined with Chothia); VL CDR2; VL CDR3; Mouse IgG2a, kappa; CDRs identical to those of 6B3; also called clone 19C7; source: mouse hybridoma; culture supernatant, or IgG purified (HiTrap-Protein G)
binding result (PDGF-BB [7]): no binding
binding result (PDGF-AA [8]): no binding
binding result (human PDGF-DD [9]): no binding
